# Assay results published in IntAct's records for PubMed 17571076.
# B1: Mitochondrial protein import protein ZIM17 (Saccharomyces cerevisiae), P42844 (parent)
# chain: MIPRTRTLLQSKIPITRYFARCWAPRVRYNVCRTLPAAALHTNIIAHNEVKKDDKKVHLGSFKVDKPKMMIAFTCKKCNTRSSHTMSKQAYEKGTVLISCPHCKVRHLIADHLKIFHDHHVTVEQLMKANGEQVSQDVGDLEFEDIPDSLKDVLGKYAKNNSENASQLPHPSQK
# Variants of: B1
# Details: with hsp77_yeasx SSC1, P0CS91
# Chain of hsp77_yeasx SSC1, P0CS91 (P0CS91 whole entry): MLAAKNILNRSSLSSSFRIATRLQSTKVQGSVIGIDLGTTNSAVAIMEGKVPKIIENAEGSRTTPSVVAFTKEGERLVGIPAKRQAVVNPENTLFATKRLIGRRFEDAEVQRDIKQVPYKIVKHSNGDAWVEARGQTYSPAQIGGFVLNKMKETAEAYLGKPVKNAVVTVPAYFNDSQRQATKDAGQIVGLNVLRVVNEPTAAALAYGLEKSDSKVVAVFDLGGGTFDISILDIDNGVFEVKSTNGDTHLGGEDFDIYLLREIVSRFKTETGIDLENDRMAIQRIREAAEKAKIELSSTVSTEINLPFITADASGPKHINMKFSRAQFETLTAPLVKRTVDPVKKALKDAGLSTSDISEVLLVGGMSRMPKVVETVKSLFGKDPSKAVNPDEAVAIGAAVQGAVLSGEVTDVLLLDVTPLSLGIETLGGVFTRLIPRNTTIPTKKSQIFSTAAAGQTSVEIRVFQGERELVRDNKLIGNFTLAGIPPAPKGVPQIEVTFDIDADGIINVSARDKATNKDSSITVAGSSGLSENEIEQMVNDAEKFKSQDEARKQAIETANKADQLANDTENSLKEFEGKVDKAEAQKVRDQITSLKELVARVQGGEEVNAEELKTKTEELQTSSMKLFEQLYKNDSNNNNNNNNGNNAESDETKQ
row,effect of a mutation on the interaction,Variant
1,disrupting interaction,H107A
2,disrupting interaction,R106A

# Variants of: B1
# Details: with hsp77_yeasx SSC1, P0CS91
# Remark: another data set of the same source
row,effect of a mutation on the interaction,Variant
1,disrupting interaction,D111A
